Assay [1] deals with T1, Recombinant Human IL-13 (human, UniProt P35225 35-146, limits assumed).
T1 construct: bought reagent
Briefly: SPR (Biacore). The procedure:
(§1) The BIACORE assay (Biacore, Inc, Piscataway, N.J.) determined the affinity of antibodies or DVD-Ig with kinetic measurements of on-rate and off-rate constants. Binding of antibodies or DVD-Ig proteins to a target antigen (for example, a purified recombinant target antigen) was determined by surface plasmon resonance-based measurements with a Biacore®1000 or 3000 instrument (Biacore® AB, Uppsala, Sweden) using running HBS-EP (10 mM HEPES [pH 7.4], 150 mM NaCl, 3 mM EDTA, and 0.005% surfactant P20) at 25° C. All chemicals were obtained from Biacore® AB (Uppsala, Sweden) or otherwise from a different source as described in the text. For example, approximately 5000 RU of goat anti-mouse IgG, (Fcγ), fragment specific polyclonal antibody (Pierce Biotechnology Inc, Rockford, Ill.) diluted in 10 mM sodium acetate (pH 4.5) was directly immobilized across a CM5 research grade biosensor chip using a standard amine coupling kit according to manufacturer's instructions and procedures at 25 μg/ml. Unreacted moieties on the biosensor surface were blocked with ethanolamine. Modified carboxymethyl dextran surface in flowcell 2 and 4 was used as a reaction surface. Unmodified carboxymethyl dextran without goat anti-mouse IgG in flow cell 1 and 3 was used as the reference surface. For kinetic analysis, rate equations derived from the 1:1 Langmuir binding model were fitted simultaneously to association and dissociation phases of all eight injections (using global fit analysis) with the use of Biaevaluation 4.0.1 software. Purified antibodies or DVD-Ig proteins were diluted in HEPES-buffered saline for capture across goat anti-mouse IgG specific reaction surfaces. Antibodies or DVD-Ig proteins to be captured as a ligand (25 μg/ml) were injected over reaction matrices at a flow rate of 5 μl/minute. The association and dissociation rate constants, kₒₙ (M⁻¹s⁻¹) and koff (s⁻¹) were determined under a continuous flow rate of 25 μl/minute. Rate constants were derived by making kinetic binding measurements at different antigen concentrations ranging from 10-200 nM. The equilibrium dissociation constant (M) of the reaction between antibodies or DVD-Ig proteins and the target antigen was then calculated from the kinetic rate constants by the following formula: KD=koff/kₒₙ. Binding was recorded as a function of time and kinetic rate constants were calculated.

Assay [2] has as its target T2, Recombinant Human IL-17 (human, UniProt Q16552 20-155, limits assumed).
T2 construct: bought reagent; also called IL-17A
T2 sequence (looked up): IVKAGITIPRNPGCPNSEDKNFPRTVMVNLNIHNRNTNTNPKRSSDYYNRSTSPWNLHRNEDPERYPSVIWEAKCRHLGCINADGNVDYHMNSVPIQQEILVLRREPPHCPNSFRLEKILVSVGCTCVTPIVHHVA
Kind of assay: SPR (Biacore). Here is the method:
as §1
For orientation: SPR reads the build-up and loss of mass on a sensor chip optically.

Assay [3] addresses T1, Recombinant Human IL-13. Kind of assay: cell-based or functional assay.
For assay [4], the target named is T2, Recombinant Human IL-17. Briefly: cell-based or functional assay.

Positions count from the first letter of the chain named.

The text below walks through data of patent US20130236458A1 (AbbVie / Abbott, published 2013).

T1 sequence (P35225 35-146 limits assumed): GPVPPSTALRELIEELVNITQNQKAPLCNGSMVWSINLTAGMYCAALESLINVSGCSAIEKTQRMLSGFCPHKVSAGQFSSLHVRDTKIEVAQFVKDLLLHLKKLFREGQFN

B1: DVD2196 (bispecific antibody)
VH: EVQLVQSGAEVKKPGASVKVSCKASGYTFTSYWMHWVRQAPGQGLEWIGNINPKGGSNIYNEKFQGRVTMTRDTSISTAYMELSRLRSDDTAVYYCARLDYFGDSFDLWGQGTTVTVSSASTKGPEVQLVQSGAEVKKPGESVKISCKASGGSFRSYGISWVRQAPGQGLEWMGGITHFFGITDYAQKFQGRVTITADESTTTAYMELSGLTSDDTAVYYCAREPNDFWNGYYDTHDFDSWGQGTTVTVSS
VL: DIQMTQSPSSLSASVGDRVTITCRASQGIRNYLNWYQQKPGKAPKLLIYYASNLEVGVPSRFSGSGSGTDYTLTISSLQPEDFATYYCQQDNRFPYTFGGGTKVEIKRTVAAPEIVLTQSPDFQSVTPKEKVTITCRASQNIGSELHWYQQKPDQSPKLLIKYASHSISGVPSRFSGSGSGTDFTLTINGLEAEDAATYYCHQSDTLPHTFGQGTKVDIKR
notes: DVD-Ig; also called DVD2196H; DVD2196L
As to B1, in the assay with Recombinant Human IL-13 [1], the Kd (as a rule, a measure of binding affinity in units of concentration) came out at 0.029 nM; the koff – broadly, the rate constant with which the complex falls apart – worked out at 6.4e-05 s⁻¹; the kon – broadly, the second-order rate constant of association – is 2.2e+06 M⁻¹ s⁻¹. Moreover, in the assay with Recombinant Human IL-17 [2], the Kd is below 0.0091 nM, the koff was below 1e-06 s⁻¹ and the kon is 110000 M⁻¹ s⁻¹. In addition, the “N-Terminal VD IL13 Neutralization Assay IC50” value with Recombinant Human IL-13 [3] worked out at 0.029 nM. Also, the “C-Terminal VD IL17 Neutralization Assay IC50” value with Recombinant Human IL-17 [4] was found to be 0.0551 nM.

B2: DVD2200 (bispecific antibody)
VH: EVQLVQSGAEVKKPGASVKVSCKASGYTFTSYWMHWVRQAPGQGLEWIGNINPKGGSNIYNEKFQGRVTMTRDTSISTAYMELSRLRSDDTAVYYCARLDYFGDSFDLWGQGTTVTVSSASTKGPSVFPLAPEVQLVQSGAEVKKPGESVKISCKASGGSFRSYGISWVRQAPGQGLEWMGGITHFFGITDYAQKFQGRVTITADESTTTAYMELSGLTSDDTAVYYCAREPNDFWNGYYDTHDFDSWGQGTTVTVSS
VL: B1 VL
notes: DVD-Ig; also called DVD2200H; DVD2200L
Take B2: in the assay with Recombinant Human IL-13 [1], the Kd was 0.045 nM, the koff was 6e-05 s⁻¹ and the kon was determined as 1.3e+06 M⁻¹ s⁻¹. In the assay with Recombinant Human IL-17 [2], the Kd was 0.025 nM, the koff amounted to 4.6e-06 s⁻¹ and the kon is 180000 M⁻¹ s⁻¹. The “N-Terminal VD IL13 Neutralization Assay IC50” value with Recombinant Human IL-13 [3] came out at 0.096 nM. In the assay with Recombinant Human IL-17 [4], the “C-Terminal VD IL17 Neutralization Assay IC50” value is 0.0072 nM.

B3: DVD2193 (bispecific antibody)
VH: EVQLVQSGAEVKKPGSSVKVSCKASGGSFGGYGIGWVRQAPGQGLEWMGGITPFFGFADYAQKFQGRVTITADESTTTAYMELSGLTSDDTAVYYCARDPNEFWNGYYSTHDFDSWGQGTTVTVSSASTKGPEVQLVQSGAEVKKPGASVKVSCKASGYTFTSYWMHWVRQAPGQGLEWIGNINPKGGSNIYNEKFQGRVTMTRDTSISTAYMELSRLRSDDTAVYYCARLDYFGDSFDLWGQGTTVTVSS
VL: EIVLTQSPDFQSVTPKEKVTITCRASQDIGSELHWYQQKPDQPPKLLIKYASHSTSGVPSRFSGSGSGTDFTLTINGLEAEDAGTYYCHQTDSLPYTFGPGTKVDIKRTVAAPSVFIFPPDIQMTQSPSSLSASVGDRVTITCRASQGIRNYLNWYQQKPGKAPKLLIYYASNLEVGVPSRFSGSGSGTDYTLTISSLQPEDFATYYCQQDNRFPYTFGGGTKVEIKR
notes: DVD-Ig; also called DVD2193H; DVD2193L
For the molecule B3, in the assay with Recombinant Human IL-13 [1], the Kd came out at 0.066 nM, the koff was 3.9e-05 s⁻¹ and the kon came to 590000 M⁻¹ s⁻¹. Also, in the assay with Recombinant Human IL-17 [2], the Kd stood at 0.012 nM, the koff amounted to 2.2e-05 s⁻¹ and the kon amounted to 1.9e+06 M⁻¹ s⁻¹. Moreover, in the assay with Recombinant Human IL-13 [3], the “C-Terminal VD IL13 Neutralization Assay IC50” value is 0.028 nM. Moreover, in the assay with Recombinant Human IL-17 [4], the “N-Terminal VD IL17 Neutralization Assay IC50” value came out at 0.014 nM.

B4: DVD2199 (bispecific antibody)
VH: EVQLVQSGAEVKKPGESVKISCKASGGSFRSYGISWVRQAPGQGLEWMGGITHFFGITDYAQKFQGRVTITADESTTTAYMELSGLTSDDTAVYYCAREPNDFWNGYYDTHDFDSWGQGTTVTVSSASTKGPEVQLVQSGAEVKKPGASVKVSCKASGYTFTSYWMHWVRQAPGQGLEWIGNINPKGGSNIYNEKFQGRVTMTRDTSISTAYMELSRLRSDDTAVYYCARLDYFGDSFDLWGQGTTVTVSS
VL: B3 VL with D28N, P43S, T55I, G84A, T91S, S93T, Y96H, P100Q
notes: DVD-Ig; also called DVD2199H; DVD2199L
In the case of B4, in the assay with Recombinant Human IL-13 [1], the Kd was 0.026 nM, the dissociation rate constant (koff) worked out at 3.4e-05 s⁻¹ and the kon came out at 1.3e+06 M⁻¹ s⁻¹. Further, in the assay with Recombinant Human IL-17 [2], the Kd turned out to be 0.019 nM, the koff was found to be 4.4e-05 s⁻¹ and the kon amounted to 2.3e+06 M⁻¹ s⁻¹. Also, the “C-Terminal VD IL13 Neutralization Assay IC50” value with Recombinant Human IL-13 [3] was 0.088 nM. Also, the “N-Terminal VD IL17 Neutralization Assay IC50” value in the assay with Recombinant Human IL-17 [4] came out at 0.0102 nM.

B5: DVD2195 (bispecific antibody)
VH: EVQLVQSGAEVKKPGSSVKVSCKASGGSFGGYGIGWVRQAPGQGLEWMGGITPFFGFADYAQKFQGRVTITADESTTTAYMELSGLTSDDTAVYYCARDPNEFWNGYYSTHDFDSWGQGTTVTVSSASTKGPSVFPLAPEVQLVQSGAEVKKPGASVKVSCKASGYTFTSYWMHWVRQAPGQGLEWIGNINPKGGSNIYNEKFQGRVTMTRDTSISTAYMELSRLRSDDTAVYYCARLDYFGDSFDLWGQGTTVTVSS
VL: EIVLTQSPDFQSVTPKEKVTITCRASQDIGSELHWYQQKPDQPPKLLIKYASHSTSGVPSRFSGSGSGTDFTLTINGLEAEDAGTYYCHQTDSLPYTFGPGTKVDIKRTVAAPDIQMTQSPSSLSASVGDRVTITCRASQGIRNYLNWYQQKPGKAPKLLIYYASNLEVGVPSRFSGSGSGTDYTLTISSLQPEDFATYYCQQDNRFPYTFGGGTKVEIKR
notes: DVD-Ig; also called DVD2195H; DVD2195L
As to B5, in the assay with Recombinant Human IL-13 [1], the Kd is 0.014 nM, the koff amounted to 3.7e-05 s⁻¹ and the kon is 2.6e+06 M⁻¹ s⁻¹. In the assay with Recombinant Human IL-17 [2], the Kd is 0.002 nM, the koff came out at 4.8e-06 s⁻¹ and the on-rate (kon) was 2.4e+06 M⁻¹ s⁻¹. Also, in the assay with Recombinant Human IL-13 [3], the “C-Terminal VD IL13 Neutralization Assay IC50” value came out at 0.052 nM. Moreover, in the assay with Recombinant Human IL-17 [4], the “N-Terminal VD IL17 Neutralization Assay IC50” value is 0.0181 nM.

B6: DVD2201 (bispecific antibody)
VH: EVQLVQSGAEVKKPGESVKISCKASGGSFRSYGISWVRQAPGQGLEWMGGITHFFGITDYAQKFQGRVTITADESTTTAYMELSGLTSDDTAVYYCAREPNDFWNGYYDTHDFDSWGQGTTVTVSSASTKGPSVFPLAPEVQLVQSGAEVKKPGASVKVSCKASGYTFTSYWMHWVRQAPGQGLEWIGNINPKGGSNIYNEKFQGRVTMTRDTSISTAYMELSRLRSDDTAVYYCARLDYFGDSFDLWGQGTTVTVSS
VL: B5 VL with D28N, P43S, T55I, G84A, T91S, S93T, Y96H, P100Q
notes: DVD-Ig; also called DVD2201H; DVD2201L
Regarding B6, in the assay with Recombinant Human IL-13 [1], the Kd is 0.024 nM, the koff came out at 5.7e-05 s⁻¹ and the kon is 2.4e+06 M⁻¹ s⁻¹. In addition, in the assay with Recombinant Human IL-17 [2], the Kd was found to be 0.04 nM, the koff was 6.3e-05 s⁻¹ and the kon is 1.6e+06 M⁻¹ s⁻¹. In addition, the “C-Terminal VD IL13 Neutralization Assay IC50” value with Recombinant Human IL-13 [3] is 0.092 nM. Further, in the assay with Recombinant Human IL-17 [4], the “N-Terminal VD IL17 Neutralization Assay IC50” value turned out to be 0.0116 nM.

B7: DVD2197 (bispecific antibody)
VH: B4 VH
VL: B5 VL with D28N, P43S, T55I, G84A, T91S, S93T, Y96H, P100Q
notes: DVD-Ig; also called DVD2197H; DVD2197L
For the molecule B7, in the assay with Recombinant Human IL-13 [1], the Kd worked out at 0.14 nM, the koff stood at 4.4e-05 s⁻¹ and the kon stood at 310000 M⁻¹ s⁻¹. In the assay with Recombinant Human IL-17 [2], the Kd was 0.038 nM, the koff is 6.2e-05 s⁻¹ and the kon was found to be 1.6e+06 M⁻¹ s⁻¹. Further, the “C-Terminal VD IL13 Neutralization Assay IC50” value with Recombinant Human IL-13 [3] is 0.081 nM. In addition, the “N-Terminal VD IL17 Neutralization Assay IC50” value in the assay with Recombinant Human IL-17 [4] stood at 0.005 nM.
